Source: publication PMC7213743, “ArdC, a ssDNA-binding protein with a metalloprotease domain, overpasses the recipient hsdRMS restriction system broadening conjugation host range”

Legend:
ArdC [1] = target: T1, ArdC (Escherichia coli plasmid R388 …, UniProt Q6I6B2 22-318); assay: EMSA; 0-1 uM ArdC, 50 nM DNA; preferred over dsDNA; EMSA: 50 mM NaCl, 25 mM Tris-HCl pH 7.5, 0.5 mM EDTA, room temperature 30 min, 50 nM DNA; 10% native PAGE in cold 1x TBE; conditions: protein: recombinant; label: 6FAM (5'); single strand
T1 sequence: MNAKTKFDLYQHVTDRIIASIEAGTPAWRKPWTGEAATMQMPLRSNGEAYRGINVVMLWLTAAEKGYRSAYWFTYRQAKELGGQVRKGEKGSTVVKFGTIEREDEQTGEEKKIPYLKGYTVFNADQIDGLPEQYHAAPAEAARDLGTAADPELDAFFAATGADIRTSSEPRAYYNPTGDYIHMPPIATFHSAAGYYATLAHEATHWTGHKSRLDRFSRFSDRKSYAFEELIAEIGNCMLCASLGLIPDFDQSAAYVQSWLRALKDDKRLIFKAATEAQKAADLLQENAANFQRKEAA

ArdC [2] = target: T1, ArdC; assay: EMSA; 0-1 uM ArdC, 50 nM DNA; preferred over blunt duplex; EMSA: 50 mM NaCl, 25 mM Tris-HCl pH 7.5, 0.5 mM EDTA, room temperature 30 min, 50 nM DNA; 10% native PAGE in cold 1x TBE; conditions: protein: recombinant, label: 6FAM (5' of strand 1)

## TACGCTCTTGGGCGCGCTGAATATGAGGTCAAGGCCGATGCGCTC (ssDNA) [Fluor-T87I2 (45 b ssDNA)]
ArdC [1]
  binding result: binds

B1: Fluor-T87I2 + Mid1 (partial duplex) (mixed)
DNA 1: TACGCTCTTGGGCGCGCTGAATATGAGGTCAAGGCCGATGCGCTC
DNA 2: GAGCGCATCGGCCTTGAC
ArdC [2]; 18 bp duplex, 5' overhang 27 nt (strand 1)
  binding result: binds

B2: Fluor-T87I2 + Mid2 (partial duplex) (mixed)
DNA 1: B1 DNA 1
DNA 2: CTCATATTCAGCGCGCCCAAGAGCGTA
ArdC [2]; 27 bp duplex, 3' overhang 18 nt (strand 1)
  binding result: binds
